Measured values: article doi:10.1101/2025.08.01.667454 (bioRxiv, 2025)
Where a chain is given by its changes, count along the chain named.

B1: PU.1[1–117] (domain or fragment, human, UniProt P17947 1-117, looked up)
chain: MLQACKMEGFPLVPPPSEDLVPYDTDLYQRQTHEYYPYLSSDGESHSDHYWDFHPHHVHSEFESFAENNFTELQSVQPPQLQQLYRHMELEQMHVLDTPMVPPHPSLGHQVSYLPRM
B2: BAF60A^YLD+SWIB (BAF60A residues 144-407) (domain or fragment, human, UniProt Q96GM5 144-407, looked up)
chain: SQAYMDLLAFERKLDQTIMRKRLDIQEALKRPIKQKRKLRIFISNTFNPAKSDAEDGEGTVASWELRVEGRLLEDSALSKYDATKQKRKFSSFFKSLVIELDKDLYGPDNHLVEWHRTATTQETDGFQVKRPGDVNVRCTVLLMLDYQPPQFKLDPRLARLLGIHTQTRPVIIQALWQYIKTHKLQDPHEREFVICDKYLQQIFESQRMKFSEIPQRLHALLMPPEPIIINHVISVDPNDQKKTACYDIDVEVDDTLKTQMNSF
B3: PU.1[60–100] (peptide, UniProt P17947 60-100, looked up)
chain: SEFESFAENNFTELQSVQPPQLQQLYRHMELEQMHVLDTPM
B4: PU.1[60–100]^TMR (peptide, UniProt P17947 60-100, looked up)
chain: B3 chain with S1C
modifications: BODIPY TMR C5 maleimide on the cysteine introduced at position 60
B5: PU.1^60C-100 (peptide, UniProt P17947 60-100, looked up)
chain: B3 chain with S1C
B6: PU.1[70–100] (peptide, UniProt P17947 70-100, looked up)
chain: FTELQSVQPPQLQQLYRHMELEQMHVLDTPM

Columns and labels:
[1] = target: B2; test: ITC
PU.1^FL S75A = PU.1^FL S75A (human, UniProt P17947 1-270, S75A); test: fluorescence polarisation
PU.1[61–270] = PU.1[61–270] (human, UniProt P17947 61-270); test: ITC
[2] = target: MBP-tagged full-length PU.1 (human, UniProt P17947 1-270); test: ITC
[3] = target: B2; test: fluorescence polarisation
[4] = target: B2; test: fluorescence polarisation; remark: listed apart in the source

Binder: B1
Kd [1]: 2800 nM

Binder: B2
binding result (PU.1^FL S75A): binds | Kd (PU.1[61–270]): 3230 nM | Kd [2]: 1260 nM | stoichiometry N [2]: 1

Binder: B3
Kd [1]: 1250 nM

Binder: B4
Kd [3]: 920 nM

Binder: B5
binding result [4]: binds

Binder: B6
IC50 [4]: 2370 nM | Kd [1]: 2570 nM
